Positions count from the first letter of the chain named.
B1: Ab21 (antibody, V domains shown)
VH: EVQLVESGGGLVQPGGSLRLSCAASGFTFSSFSMDWVRQAPGKGLEWVSYISPDASTIYYADSVKGRFTISRDNAKNSLYLQMNSLRAEDTAVYYCARGVLDYGDMLDPWGQGTLVTVSS
VL: DIQMTQSPSSLSASVGDRVTITCQASQDITNYLNWYQQKPGKAPKLLIYDASNLETGVPSRFSGSGSGTDFTFTISSLQPEDIATYYCQQADNHPPWTFGGGTKVEIK
B2: Ab33 (antibody, IgG4, V domains shown)
VH: B1 VH with D35N, D54S, S56D, S78T, R98H
VL: B1 VL
B3: Ab29 (antibody, IgG4, V domains shown)
VH: B1 VH with G16R, S33A, D35N, D62G, A97V, G99A
VL: B1 VL
B4: Ab27 (antibody, V domains shown)
VH: B1 VH with S31F, F32Y, S33A, D35N
VL: B1 VL
B5: Ab31 (antibody, IgG4, V domains shown)
VH: B1 VH with S78T, G99A
VL: B1 VL
B6: Ab30 (antibody, IgG4, V domains shown)
VH: B1 VH with V100T
VL: B1 VL
B7: Ab22 (antibody, IgG4, V domains shown)
VH: B1 VH with S30G, D35N, S52H, P53S
VL: B1 VL
B8: Ab28 (antibody, V domains shown)
VH: B1 VH with A97V
VL: B1 VL
B9: Ab24 (antibody, IgG4, V domains shown)
VH: B1 VH with G16R, S33A, D35Y
VL: B1 VL
B10: Ab32 (antibody, IgG4, V domains shown)
VH: B1 VH with D35N, D54S, S56D, S78T, L101W, Y103M
VL: B1 VL
B11: Ab25 (antibody, V domains shown)
VH: B1 VH with S30G
VL: B1 VL
B12: Ab23 (antibody, V domains shown)
VH: B1 VH with D35N, D54S, S56D, S78T
VL: B1 VL
B13: Ab26 (antibody, IgG4, V domains shown)
VH: B1 VH with S78T
VL: B1 VL
B14: Ab4 (antibody, IgG4, V domains shown)
VH: B1 VH with F32Y, D35N, P53S, D54S, A55S
VL: B1 VL

Target: Cell-associated proTGFβ1 complexes (hGARP-proTGFβ1 and hLRRC33-proTGFβ1)
Experiment: BLI (Octet)
Settings: not given

| Cell AVRG (average KD, hGARP and hLRRC33 complexes) [nM] | Molecule |
| --- | --- |
| 0.644 | B1 |
| 0.302 | B2 |
| 0.304 | B3 |
| 0.361 | B4 |
| 0.495 | B5 |
| 0.684 | B6 |
| 0.695 | B7 |
| 0.603 | B8 |
| 0.537 | B9 |
| 0.597 | B10 |
| 0.449 | B11 |
| 0.897 | B12 |
| 0.492 | B13 |

Target: Matrix-associated proTGFβ1 complexes (hLTBP1-proTGFβ1 and hLTBP3-proTGFβ1)
Experiment: BLI (Octet)
Settings: not given

| ECM AVRG (average KD, hLTBP1 and hLTBP3 complexes) [nM] | Molecule |
| --- | --- |
| 0.246 | B1 |
| 0.145 | B2 |
| 0.155 | B3 |
| 0.208 | B4 |
| 0.208 | B5 |
| 0.296 | B6 |
| 0.324 | B7 |
| 0.328 | B8 |
| 0.222 | B9 |
| 0.242 | B10 |
| 0.184 | B11 |
| 0.443 | B12 |
| 0.197 | B13 |

Target: Cell-associated proTGFβ1 complexes (hGARP-proTGFβ1 and hLRRC33-proTGFβ1)
Experiment: MSD-SET, hIgG4
Settings: not given

| Cell AVRG (average KD, hGARP and hLRRC33 complexes) [nM] | Molecule |
| --- | --- |
| 0.027 | B2 |
| 0.024 | B3 |
| 0.058 | B5 |
| 2.3 | B14 |
| 0.081 | B6 |
| 0.114 | B7 |
| 0.1 | B9 |
| 0.051 | B10 |
| 0.072 | B13 |

Target: Matrix-associated proTGFβ1 complexes (hLTBP1-proTGFβ1 and hLTBP3-proTGFβ1)
Experiment: MSD-SET, hIgG4
Settings: not given

| ECM AVRG (average KD, hLTBP1 and hLTBP3 complexes) [nM] | Molecule |
| --- | --- |
| 0.009 | B2 |
| 0.012 | B3 |
| 0.017 | B5 |
| 5.05 | B14 |
| 0.029 | B6 |
| 0.042 | B7 |
| 0.023 | B9 |
| 0.032 | B10 |
| 0.026 | B13 |

Tested on: matrix-associated vs cell-associated proTGFβ1 complexes
Experiment: MSD-SET: fold bias, cell average over matrix average
Format: binding, human
Settings: ratio of average KD
Text: Column (A) of the table lists monoclonal antibodies with discrete amino acid sequences. […] Columns (B), (D), (E) and (F) provide affinities of each of the listed antibodies, measured in KD. […] Average KD values of (B) and (C) are shown in the corresponding column (D), which collectively represents affinities of the antibodies to ECM- or matrix-associated proTGFβ1 complexes. Similarly, Average KD values of (E) and (F) are shown in the corresponding column (G), which collectively represents affinities of the antibodies to cell-surface or cell-associated proTGFβ1 complexes. Finally, relative ratios between the average KD values from columns (D) and (G) are expressed as “fold bias” in column (H). Thus, the greater the number of column (H) is, the greater bias exists for the particular antibody, when comparing binding preferences of the antibody for matrix-associated complexes and cell-surface complexes. This is one way of quantitatively representing and comparing inherent bias of antibodies to their target complexes. Such analyses may be useful in guiding the selection process for a candidate antibody for particular therapeutic use.
Solution equilibrium titration (“SET”) is an assay whereby binding between two molecules (such as an antigen and an antibody that binds the antigen) can be measured at equilibrium in a solution. […]

| Molecule | (H) G/D (fold bias) [fold] |
| --- | --- |
| B14 | 0.42 |

Reference: US20250282857A1, “TGF-BETA INHIBITORS AND USE THEREOF” (SCHOLAR ROCK, INC., priority 2021, published 2025)
